The values below come from PMC9334538 (2022).

In the experiment the target is WT SARS-CoV-2 RBD (amino acids 321 to 591 of spike) (SARS-CoV-2, UniProt P0DTC2 321-591). As to the kind of experiment: SPR. For orientation: In SPR one partner is held on a chip, and binding of the other changes the refractive index at the surface.

A word on the koff: it is the first-order rate constant of dissociation. A high value points to fast dissociation.

B1: aRBD-5-Fc (Fc fusion)
chain: QVQLVESGGGLVQPGGTLRLSCAASGFTLDYYAIGWFRQAPGKEREGVSCISGSGGITNYTDSVKGRFTISRDNAKNTVYLQMNSLKPEDTAVYYCAPVSHTVVAGCAFEAWTDFGSWGQGTQVTVSS
Molecule B1 registered a koff of 0.0143 s⁻¹.
